The term EC50 denotes the concentration that produces a half-maximal response. Higher therefore signals a less potent agent. The term EC50 (read off the curve) denotes the concentration at which the effect is half-maximal.

The target in assay [1] is P17-Fc fusion protein (human CD40 extracellular domain fused to human IgG1 Fc) (human) (UniProt P25942). In words: ELISA on P17-Fc, positive control.
The target is the same in assay [2]. In words: ELISA, P17-Fc against titrated antibody. (In general: An ELISA detects its analyte on a solid surface through an enzyme-linked reagent.)
The target of assay [3] is biotinylated P17-Fc fusion protein (human) (UniProt P25942). Kind of assay: ELISA, biotinylated P17-Fc against titrated antibody.
Sequence of biotinylated P17-Fc fusion protein (human) (P25942 21-193 limits assumed): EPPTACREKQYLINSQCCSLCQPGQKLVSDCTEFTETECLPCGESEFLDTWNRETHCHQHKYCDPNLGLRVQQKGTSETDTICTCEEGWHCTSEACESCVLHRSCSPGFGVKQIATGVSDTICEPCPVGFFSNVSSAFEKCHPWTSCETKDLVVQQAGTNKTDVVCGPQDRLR
For assay [4], the target named is P17-Fc fusion protein (human CD40 extracellular domain fused to human IgG1 Fc) (human) (UniProt P25942). In words: ELISA, unbiotinylated P17-Fc against titrated antibody.
For assay [5], the target named is human CD40 expressed on the cell surface (human) (UniProt P25942). Kind of assay: flow cytometry on CHO-K-huCD40 cells, APC anti-human IgG Fc secondary antibody. (In general: A flow cytometer gives signals particle by particle.)
Sequence of human CD40 expressed on the cell surface (human) (P25942 21-277): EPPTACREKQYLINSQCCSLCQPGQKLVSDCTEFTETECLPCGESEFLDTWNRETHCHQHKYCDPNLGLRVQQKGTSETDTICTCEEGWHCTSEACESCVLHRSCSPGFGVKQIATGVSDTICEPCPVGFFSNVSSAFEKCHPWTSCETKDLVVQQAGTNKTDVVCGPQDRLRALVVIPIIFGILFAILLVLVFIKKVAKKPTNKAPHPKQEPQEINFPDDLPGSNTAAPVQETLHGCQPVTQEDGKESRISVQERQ
Assay [6] shares this target. Kind of assay: blocking assay by flow cytometry: CHO-K-huCD40 cells with titrated antibody, then CD40L-biotin (200 ng/mL) and PE-streptavidin; blocked ligand CD40L.

Sequence of P17-Fc fusion protein (human CD40 extracellular domain fused to human IgG1 Fc) (human) (P25942 21-193 limits assumed): as the sequence (P25942 21-193 limits assumed) above

B1: Bleslumab (antibody, INN chains, looked up, V domains shown)
VH: QLQLQESGPGLLKPSETLSLTCTVSGGSISSPGYYGGWIRQPPGKGLEWIGSIYKSGSTYHNPSLKSRVTISVDTSKNQFSLKLSSVTAADTAVYYCTRPVVRYFGWFDPWGQGTLVTVSS
VL: AIQLTQSPSSLSASVGDRVTITCRASQGISSALAWYQQKPGKAPKLLIYDASNLESGVPSRFSGSGSGTDFTLTISSLQPEDFATYYCQQFNSYPTFGQGTKVEIK
With B1, in assay [1], the EC50 is 0.047 µg/mL. For the same molecule, the EC50 (read off the curve) in assay [2] came out at 0.2 µg/mL; in assay [3], 0.08 µg/mL; in assay [4], 0.08 µg/mL; in assay [5], 0.7 µg/mL. The molecule also returned an IC50 (read off the curve) in assay [6] of 1 µg/mL.

B2: Dacetuzumab (antibody, INN chains, looked up, V domains shown)
VH: EVQLVESGGGLVQPGGSLRLSCAASGYSFTGYYIHWVRQAPGKGLEWVARVIPNAGGTSYNQKFKGRFTLSVDNSKNTAYLQMNSLRAEDTAVYYCAREGIYWWGQGTLVTVSS
VL: DIQMTQSPSSLSASVGDRVTITCRSSQSLVHSNGNTFLHWYQQKPGKAPKLLIYTVSNRFSGVPSRFSGSGSGTDFTLTISSLQPEDFATYFCSQTTHVPWTFGQGTKVEIKR
Turning to B2, the results for the EC50 (read off the curve) in assay [2], in assay [3] and in assay [4] were 0.3 µg/mL, 0.08 µg/mL and 0.08 µg/mL, respectively.

For the origin of these results see patent publication US20240218071A1.
